From US8361965B2, “Recombinant chimeric protein of neutrophil inhibitory factor and hirugen, and pharmaceutical composition thereof” (Lunan Pharmaceutical Group Corporation, priority 2008, dated 2013) come the findings set out here.

The target of assay [1] is T1, Human fibrin (Homo sapiens, UniProt P02671+P02675+P02679).
T1 construct: Human fibrin (1 g/ampoule, F5386), Sigma company; purchased Sigma F5386
T1 sequence (P02671 36-629 limits assumed): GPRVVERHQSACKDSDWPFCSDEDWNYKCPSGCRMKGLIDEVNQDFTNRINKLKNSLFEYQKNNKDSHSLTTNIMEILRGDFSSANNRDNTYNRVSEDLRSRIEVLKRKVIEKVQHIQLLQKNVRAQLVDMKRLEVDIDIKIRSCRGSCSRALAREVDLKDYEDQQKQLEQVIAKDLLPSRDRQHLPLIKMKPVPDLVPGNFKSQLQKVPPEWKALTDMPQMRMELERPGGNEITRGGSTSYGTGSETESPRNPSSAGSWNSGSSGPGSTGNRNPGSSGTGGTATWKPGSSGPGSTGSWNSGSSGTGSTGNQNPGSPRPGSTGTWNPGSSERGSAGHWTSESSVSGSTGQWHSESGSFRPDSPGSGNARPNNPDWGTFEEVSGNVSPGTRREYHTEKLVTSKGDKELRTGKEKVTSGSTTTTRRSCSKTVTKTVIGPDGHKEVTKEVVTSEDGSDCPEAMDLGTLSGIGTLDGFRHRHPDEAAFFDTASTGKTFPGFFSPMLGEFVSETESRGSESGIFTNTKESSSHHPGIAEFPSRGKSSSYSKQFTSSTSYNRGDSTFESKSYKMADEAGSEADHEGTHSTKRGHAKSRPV
T1 sequence (P02675 45-491 limits assumed): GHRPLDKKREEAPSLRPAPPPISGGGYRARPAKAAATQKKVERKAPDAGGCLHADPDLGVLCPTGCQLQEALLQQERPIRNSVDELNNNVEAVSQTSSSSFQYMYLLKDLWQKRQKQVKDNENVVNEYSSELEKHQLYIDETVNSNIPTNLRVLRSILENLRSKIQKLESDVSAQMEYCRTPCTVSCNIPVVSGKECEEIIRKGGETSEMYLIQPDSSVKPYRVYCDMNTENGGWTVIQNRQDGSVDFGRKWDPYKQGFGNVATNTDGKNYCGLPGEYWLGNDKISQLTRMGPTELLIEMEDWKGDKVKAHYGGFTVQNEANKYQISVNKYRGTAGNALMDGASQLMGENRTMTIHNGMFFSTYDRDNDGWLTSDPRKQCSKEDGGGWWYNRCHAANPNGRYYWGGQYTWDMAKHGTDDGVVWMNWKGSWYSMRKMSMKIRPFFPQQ
T1 sequence (P02679 27-437 isoform P02679-2 limits assumed): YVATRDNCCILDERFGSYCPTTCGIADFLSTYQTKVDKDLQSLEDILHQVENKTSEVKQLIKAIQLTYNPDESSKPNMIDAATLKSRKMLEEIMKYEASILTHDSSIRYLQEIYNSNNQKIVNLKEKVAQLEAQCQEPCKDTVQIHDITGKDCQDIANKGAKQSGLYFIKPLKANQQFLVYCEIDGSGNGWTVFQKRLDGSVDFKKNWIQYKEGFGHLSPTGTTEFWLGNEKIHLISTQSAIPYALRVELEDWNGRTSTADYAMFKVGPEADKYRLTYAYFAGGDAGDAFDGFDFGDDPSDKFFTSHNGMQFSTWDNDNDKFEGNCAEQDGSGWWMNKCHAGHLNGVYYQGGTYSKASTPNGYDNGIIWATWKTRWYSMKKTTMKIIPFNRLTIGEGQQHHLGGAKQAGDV
Nature of the assay: in vitro binding of TNHH to fibrin (SEC-HPLC). Conditions: 37° C. 1 h. The procedure: Weigh TNHH, dilute to 1.0 mg/ml with phosphate buffer solution, and is ready for use; Weight fibrin precisely, dissolve and dilute to 0.1 mg/ml with phosphate buffer solution, and is ready for use; Weigh thrombin, dissolve and dilute to 100 units/ml with phosphate buffer solution, which is ready for use.
Following the below procedures, test materials were reacted at 37° C. for 1 h, and then analyzed under the following chromatographic conditions.
(1) pipette test material solutions (20 μl for each), loading for analysis, and recording each retention time.
(2) pipette fibrin and thrombin solutions (0.5 ml for each), mixing and reacting at 37° C. for 1 h, and loading 20 μl sample for analysis.
(3) pipette TNHH and fibrin solutions (0.5 ml for each), mixing and reacting at 37° C. for 1 h, and loading 20 μl sample for analysis.
(4) pipette TNHH and thrombin solutions (0.5 ml for each), mixing and reacting at 37° C. for 1 h, and loading 20 μl sample for analysis.
(5) pipette TNHH and mixture of fibrin and thrombin solutions (0.5 ml for each), mixing and reacting at 37° C. for 1 h, and loading 20 μl sample for analysis.
Flow rate 0.5 ml/min; detection wavelength: 214 nm, Column temperature: room temperature; chromatogram recording time: 25 min.
A general note: In gel filtration, larger molecules generally elute earlier.

The subject of assay [2] is blood coagulation system. Nature of the assay: effects on blood coagulation system of New Zealand rabbits in vitro (APTT, PT, TT). The class given is biochemical, New Zealand rabbit. Details: PT: unit not given beside the values; APTT / TT: unit not given here. On the procedure: Medicaments were diluted to the following concentrations for use: TNHH: 3.0 mg/ml; 1.0 mg/ml; 333 μg/ml; bivalrudin: 600 μg/ml; 200 μg/ml; 67 μg/ml; Hirudin: 660 μg/ml; 220 μg/ml; 73 μg/ml.
The blood was sampled from six New Zealand rabbits (10×1.8 ml for each one) from marginal ear vein and added into 10 anticoagulation tubes, respectively. 3.2% sodium citrate (9:1) was added for anticoagulation.
20 μl anticoagulated blood was taken from each tube, followed by the addition of 20 μl above diluted medicaments for each tube. 20 μl physiological saline was added into the control tube. Samples were mixed thoroughly and centrifuged at 3000 rpm/min for 3 min, and plasma was send to Department of Clinical Laboratory, Southwest Hospital for determining blood coagulation indexes (APTT, TT and PT) with a full automatic coagulation analyzer and the difference before and after administration was obtained by comparison.

Setting [3] is: TNHH 3.33 μg/ml in rabbit blood.
The mark [4] stands for this setting: TNHH 10.00 μg/ml in rabbit blood.
Setting [5] is: TNHH 30.00 μg/ml in rabbit blood.

B1: TNHH: recombinant chimeric protein of neutrophil inhibitory factor and hirugen, Met-NIF-GGGGG-FPRPGSGG-Hirugen (SEQ ID NO: 3), expressed in E. coli (protein)
chain: MNEHNLRCPQNGTEMPGFNDSIRLQFLAMHNGYRSKLALGHISITEESESDDDDDFGFLPDFAPRASKMRYLEYDCEAEKSAYMSARNCSDSSSPPEGYDENKYIFENSNNISEAALKAMISWAKEAFNLNKTKEGEGVLYRSNHDISNFANLAWDAREKFGCAVVNCPLGEIDDETNHDGETYATTIHVVCHYPKINKTEGQPIYKVGTPCDDCSEYTKKADNTTSADPVCIPDDGVCFIGSKADYDSKEFYRFRELGGGGGFPRPGSGGNGDFEEIPEEYL
modifications: N-terminal Met
B1: in assay [1], the binding with fibrin result is “could bind with fibrin and thrombin”. The APTT in assay [2] (setting [3]) is on record as 33.73 ± 6.35; in assay [2] (setting [4]), 31.87 ± 4.46; in assay [2] (setting [5]), 38.08 ± 5.53. In addition, the PT in assay [2] (setting [3]) stood at 7.08 ± 0.28; in assay [2] (setting [4]), 7.15 ± 0.24; in assay [2] (setting [5]), 7.27 ± 0.38. The TT stood at 17.13 ± 1.46 in assay [2] (setting [3]), 20.43 ± 1.59 in assay [2] (setting [4]) and 30.00 ± 4.81 in assay [2] (setting [5]).
